Assay results taken from US20260055211A1.

What was measured:
[1] = molecular target: anti-PR3 autoantibodies in PR3+ANCA patient serum; test: pull-down with binder-coated magnetic beads, serum PR3+ ANCA 4; 100 - (anti-PR3 IgG after binder beads / after control-protein beads x 100), c-ANCA ELISA
[2] = molecular target: anti-PR3 autoantibodies in PR3+ANCA patient serum; test: competition ELISA: serum PR3+ ANCA 1 (1:100) pre-incubated with the binder, unblocked anti-PR3 IgG measured on a c-ANCA (PR3) ELISA kit, % of untreated
[3] = molecular target: anti-PR3 autoantibodies in PR3+ANCA patient serum; test: depletion with m1-coated magnetic beads (1 mg beads, 1:50 serum, 10 min), flow-through measured by c-ANCA ELISA; five patient sera
[4] = molecular target: anti-PR3 autoantibodies in PR3+ANCA patient serum; test: blocking ELISA: 1:100 serum pre-incubated 30 min with 0 to 600 µg/ml m1, c-ANCA ELISA kit; 14 out of 15 patient sera of low, medium and high titer
[5] = molecular target: anti-PR3 autoantibodies in PR3+ANCA patient serum; test: pull-down with binder-coated magnetic beads, serum PR3+ ANCA 91; 100 - (anti-PR3 IgG after binder beads / after control-protein beads x 100), c-ANCA ELISA
[6] = molecular target: anti-PR3 autoantibodies in PR3+ANCA patient serum; test: competition ELISA, medium-titer serum ANCA 97 (1:100) pre-incubated with the binder, unblocked anti-PR3 IgG on a c-ANCA (PR3) ELISA kit, % of untreated
[7] = molecular target: anti-PR3 autoantibodies in PR3+ANCA patient serum; test: pull-down with binder-coated magnetic beads, serum PR3+ ANCA 97; 100 - (anti-PR3 IgG after binder beads / after control-protein beads x 100), c-ANCA ELISA
[8] = molecular target: anti-PR3 autoantibodies in PR3+ANCA patient serum; test: pull-down with binder-coated magnetic beads, serum PR3+ ANCA 60; 100 - (anti-PR3 IgG after binder beads / after control-protein beads x 100), c-ANCA ELISA
[9] = molecular target: anti-PR3 autoantibodies in PR3+ANCA patient serum; test: pull-down with binder-coated magnetic beads, serum PR3+ ANCA 93; 100 - (anti-PR3 IgG after binder beads / after control-protein beads x 100), c-ANCA ELISA
[10] = molecular target: anti-PR3 autoantibodies in PR3+ANCA patient serum; test: competition ELISA, low-titer serum ANCA 93 (1:100) pre-incubated with the binder, unblocked anti-PR3 IgG on a c-ANCA (PR3) ELISA kit, % of untreated
[11] = molecular target: anti-PR3 autoantibodies in PR3+ANCA patient serum; test: competition ELISA, medium-titer serum ANCA 65 (1:100) pre-incubated with the binder, unblocked anti-PR3 IgG on a c-ANCA (PR3) ELISA kit, % of untreated
[12] = molecular target: anti-PR3 autoantibodies in PR3+ANCA patient serum; test: blocking ELISA: 1:100 serum pre-incubated 30 min with 0 to 100 µg/ml m1, c-ANCA ELISA kit; patient samples 1, 7, 24 and 58

% of depletion [1]: 81% | IC50 (read off the curve) [2]: 0.4 µg/mL | percentage of depletion of anti-PR3 autoantibodies [3]: > 50% | residual binding percentage (residual autoantibodies against untreated serum) [4]: < 50% | % of depletion [5]: 53% | IC50 (read off the curve) [6]: 0.2 µg/mL | % of depletion [7]: 51% | % of depletion [8]: 91% | % of depletion [9]: 88% | IC50 (read off the curve) [10]: 0.5 µg/mL | IC50 (read off the curve) [11]: 0.4 µg/mL | residual binding percentage (residual autoantibodies against untreated serum) [12]: < 50%
B1: PR3 glycoengineered polypeptide (protein)
chain: IVGGHEAQPHSRPYMASLQMRGNPGSHFCGGTLIHPSFVLTAAHCLRDIPQRLVNVVLGAHNVRTQEPTQQHFSVAQVFLNNYDAENKLNDVLLIQLSSPANLSASVATVQLPQQDQPVPHGTQCLAMGWGRVGAHDPPAQVLQELNVTVVTAACRPHNICTFVPRRKAGICFGDAGGPLICDGIIQGIDSFVIWGCATRAAPDFFTRVALYVDWIRSTLRRVEAKGRPGGGGANSTAPAPAPAHHHHHHHHHH
modifications: N-glycans (81.5% A2GalNAc2, biantennary GalNAc-terminated) at the native sites N129 and N174 (numbering of UniProt P24158) and at the Asn of the C-terminal glycotag; 80-90% of molecules fully …
